Assay results published in patent US20120101255A1 (published 2012).

Assays:
[1] = biological target: T1, Recombinant Cx43CT (carboxyl terminal domain of rat connexin43, residues 255-382, preceded by GPLG) (rat, UniProt P08050 255-382); experiment: SPR, Cx43CT immobilised, peptide 250 µM and higher
T1 construct: range 255-382; Made as a GST fusion in E. coli and cleaved from GST; 15N-labelled for NMR; also called recombinant CT; carboxyl terminal domain of Cx43
Method: II: Applications to Biological Systems,” Biochim. Biophys. Acta 1331(2):131-152 (1997), which is hereby incorporated by reference in its entirety). Specific peptides were presented and, when feasible, dissociation constants (KD) were calculated from the time course of binding and unbinding of the ligand, using a 1:1 (Langmuir) association and dissociation kinetic model (Biacore software package). In both phases (association and dissociation), the first 5-8 seconds of recording were not included in the fit, to avoid artifacts resulting from peptide distribution within the flow cells (Lang et al., “Surface Plasmon Resonance as a Method to Study the Kinetics and Amplitude of Protein-protein Binding,” in PRACTICAL METHODS IN CARDIOVASCULAR […] 936-947 (Stefan Dhein, Friedrich Wilhelm Mohr & Mario Delmar eds., 2005), which is hereby incorporated by reference in its entirety).
Phage display allows for the rapid screening of thousands of peptides, but the characteristics of binding cannot be properly defined. Furthermore, the peptides are part of a capsid protein, which may affect the ability of the peptide to properly interact with the target protein. […] Higher concentrations of the peptide were tested but an asymptotic maximum response could not be detected.

[2] = biological target: Cx43 expressed in N2a (neuroblastoma) cells; experiment: cell-based or functional assay

T1 sequence (P08050 other isoform, or with tags, fused parts or gaps limits assumed): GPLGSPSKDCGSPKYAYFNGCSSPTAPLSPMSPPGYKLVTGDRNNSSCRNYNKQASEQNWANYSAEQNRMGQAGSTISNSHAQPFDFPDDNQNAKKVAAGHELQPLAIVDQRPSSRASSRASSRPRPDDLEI

Binder | binding result [1] | junctional conductance (Gj) relative to control during octanol superfusion, RXP-E 0.1 mM in the pipette [2] | junctional conductance (Gj) relative to control with pipette solution at pH 6.2, RXP-E in the pipette [2]
RRPPYRVPPKLF (Synthetic 12-mer from the non-biased phage display screen) [RXP4] | binds |  | 
SDDLRSPQLHNGGGSAVPFYSHSHMVRRKPRNPR [RXP-E] |  | 57.6 % of control | 57 % of control
